# Columns and labels:
# Alpha = Alpha (SARS-CoV-2)
# Beta = Beta (SARS-CoV-2)
# [1] = molecular target: T1, SARS-CoV-2 S protein (entire S ectodomain) (SARS-CoV-2, UniProt P0DTC2 14-1209); assay: biolayer interferometry (BLI)
# [2] = molecular target: T1, SARS-CoV-2 S protein (entire S …)
binder,measurement,setting,value
"monoclonal antibody (mAb) m31A7 (antibody, V domains shown) VH: EVQLQQSGPEMVKPGASVKISCKTSGYTFTEYTIYWVKQSHGKSLEWLGGINPNIGDTTYNQKFKGKATLTVDTSSSTAYMELRSLTSEDSAVYYCAREVYNYSFAYWGQGTLVTVSA VL: DIVMSQSPSSLAVSVGEKVTMSCKSSQSLLYSSNQKNYLAWYQQKLGQTPKLLIYWASSRESGVPDRFTGSGSGTDFTLTISSVRAEDLAVYYCQQYYRYPLTFGVGTKLELKR",EC50,WT,0.0685 nM
same,EC50,D614G,0.0321 nM
same,EC50,Alpha,0.0446 nM
same,EC50,Beta,0.0325 nM
same,Kd,[1],0.0709 nM
same,EC50,[2],0.0312 nM
